# Patent US20240132622A1 (Bristol-Myers Squibb, published 2024)
# Changes are numbered by the printed parent chain. Names may count otherwise.
# B1: hz20-7 (antibody, IgG1, V domains shown)
# VH: QVQLVQSGAEVKKPGASVKVSCKASGYTFTNYGISWVRQAPGQGLEWMGEIYPRSGNTYHNEKFKDRVTMTTDTSTSTAYMELRSLRSDDTAVYYCARSMITTRYWYFDVWGKGTTVTVSS
# VL: DIVMTQSPDSLAVSLGERATINCRASESVDTYGNSFMHWYQQKPGQPPKLLIYLASNLESGVPDRFSGSGSGTDFTLTISSLQAEDVAVYYCQQNNEDPLTFGQGTKLEIK
# notes: also called clone 20-based hz20-7 antibody
# B2: hz20-3 (antibody, V domains shown)
# VH: B1 VH with Q1E, T72A, T74K, Y95F, K113Q, T116L
# VL: DIQMTQSPSSLSASVGDRVTITCRASESVDTYGNSFMHWYQQKPGKAPKLLIYLASNLESGVPSRFSGSGSGTDFTLTISSLQPEDFATYYCQQNNEDPLTFGQGTKVEIK
# notes: light constant region not tied to this antibody
# B3: hz20-12 (antibody, V domains shown)
# VH: B1 VH with K12A, A40R, D89E
# VL: B1 VL with S80D
# notes: as for B2
# B4: hz20-8 (antibody, V domains shown)
# VH: B1 VH
# VL: B1 VL with S80D
# notes: as for B2
# B5: hz20-4 (antibody, V domains shown)
# VH: B1 VH with T72A, A79V, R84S, D89E
# VL: B1 VL with Q104A, I110L
# notes: as for B2
# B6: hz20-11 (antibody, V domains shown)
# VH: B1 VH with K12A, A40R, D89E
# VL: B1 VL
# notes: as for B2
# B7: hz20-10 (antibody, V domains shown)
# VH: B1 VH with T74K
# VL: B1 VL with S80D
# notes: as for B2
# B8: hz20-6 (antibody, V domains shown)
# VH: QVQLVQSGAEVKKPGASVKLSCKATGYTFTNYGISWVRQAPGQGLEWIGEIYPRSGNTYHNEKFKDRVTLTADKSSSTAYMEFRSLRSDDTAVYFCARSMITTRYWYFDVWGQGTLVTVSS
# VL: B2 VL
# notes: as for B2
# B9: hz20-2 (antibody, IgG1, V domains shown)
# VH: B1 VH with K113Q, T116L
# VL: B2 VL
# notes: also called clone 20-based hz20-2 antibody
# B10: hz20-9 (antibody, V domains shown)
# VH: B1 VH with T74K
# VL: B1 VL
# notes: as for B2
# B11: hz20-13 (antibody, V domains shown)
# VH: B1 VH with A40R, T74K, D89E
# VL: B1 VL
# notes: as for B2
# B12: hz20-5 (antibody, V domains shown)
# VH: B1 VH with A40R, M48I, T72A, A79V, R84S, D89E
# VL: B1 VL with Q104A, I110L
# notes: as for B2
# B13: hz20-14 (antibody, V domains shown)
# VH: B1 VH with A40R, T74K, D89E
# VL: B1 VL with S80D
# notes: as for B2
# B14: hz13-1 (antibody, V domains shown)
# VH: EVQLVQSGAEVKKPGASVKVSCTSSDFNIKDHFIHWVRQAPGKGLEWMGRIDPEDDETKYAPKFQDRVTMTADTSTDTAYMELSSLRSEDTAVYYCAGYGNYEGAMDYWGQGTLVTVSS
# VL: DIQMTQSPSSLSASVGDRVTITCRASENVNNYGIGFMNWYQQKPGKAPKLLIYAASRRGSGVPSRFSGSGSGTDFTLTISSLQPEDFATYYCQQSKEVPYTFGQGTKVEIK
# notes: as for B2
# B15: hz13-12 (antibody, IgG1, V domains shown)
# VH: B14 VH with S17T, V20I, R38Q, M70I, L114T
# VL: DVVMTQSPLSLPVTLGQPASISCRASENVNNYGIGFMNWFQQRPGQSPRLLIYAASRRGSGVPDRFSGSGSGTDFTLKISRVEEEDVGVYYCQQSKEVPYTFGGGTKVEIK
# notes: also called clone 13-based hz13-12 antibody
# B16: hz13-10 (antibody, V domains shown)
# VH: B14 VH with S17T, V20I, T23K, S24V, R38Q, M70I, L114T
# VL: B15 VL
# notes: as for B2
# B17: hz13-11 (antibody, V domains shown)
# VH: B14 VH with S17T, V20I, R38Q, M70I, L114T
# VL: B15 VL with L50R, E84A
# notes: as for B2
# B18: hz13-12 D31E (antibody, human IgG1, kappa, V domains shown)
# VH: B14 VH with S17T, V20I, D31E, R38Q, M70I, L114T
# VL: DVVMTQSPLSLPVTLGQPASISCRASENVNNYGIGFMNWFQQRPGQSPRLLIYAASRRGSGVPDRFSGSGSGTDFTLKISRVEEEDVGVYYCQQSKEVPYTFGGGTKVEIKR
# notes: IgG1.3f; also called hz3-12 D31E
# Biological target: T1, recombinant human PAD4 (human, UniProt Q9UM07 1-663)
# Experiment: cell-based or functional assay
# T1 sequence (Q9UM07 whole entry): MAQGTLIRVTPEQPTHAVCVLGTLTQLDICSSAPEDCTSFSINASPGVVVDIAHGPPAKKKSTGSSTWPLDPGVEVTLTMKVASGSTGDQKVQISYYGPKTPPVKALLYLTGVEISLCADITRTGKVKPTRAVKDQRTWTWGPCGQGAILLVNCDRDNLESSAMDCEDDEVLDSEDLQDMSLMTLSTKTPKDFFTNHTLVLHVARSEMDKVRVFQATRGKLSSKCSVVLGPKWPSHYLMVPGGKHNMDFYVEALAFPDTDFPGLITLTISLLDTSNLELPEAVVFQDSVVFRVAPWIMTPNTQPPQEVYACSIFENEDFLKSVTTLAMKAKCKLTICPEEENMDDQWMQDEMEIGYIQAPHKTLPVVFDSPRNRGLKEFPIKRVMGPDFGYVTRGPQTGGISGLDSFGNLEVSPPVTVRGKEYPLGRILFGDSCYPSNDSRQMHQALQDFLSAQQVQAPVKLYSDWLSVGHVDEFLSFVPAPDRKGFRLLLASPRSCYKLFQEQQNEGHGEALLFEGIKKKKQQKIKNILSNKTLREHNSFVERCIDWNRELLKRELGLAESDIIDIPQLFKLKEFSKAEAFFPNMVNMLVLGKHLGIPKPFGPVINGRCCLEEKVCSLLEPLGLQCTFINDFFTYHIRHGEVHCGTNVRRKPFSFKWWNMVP
row,"IC50 (average), PAD4 citrullination of peptide …, RapidFire MS [nM]",Binder
1,64.7,B1
2,58,B2
3,59,B3
4,71.9,B4
5,118,B5
6,65.7,B6
7,57.4,B7
8,64,B8
9,73,B9
10,107,B10
11,52.6,B11
12,56.5,B12
13,56.9,B13
14,125,B14
15,42.4,B15
16,55.8,B16
17,88.7,B17

# Biological target: T1, recombinant human PAD4
# Experiment: SPR 37 C, captured antibody, PAD4 analyte, 2 mM EDTA
# Description: (§1) For SPR measurements, either an anti-human capture surface or Protein A surface (Cytiva catalog #29127555) was used. Anti-human capture surface was prepared by immobilizing anti-human capture antibody (Cytiva catalog #29234600) onto flow cells of a CM5 or CM4 biosensor following the manufacturer's amine coupling protocol (Cytiva catalog #BR-1006-33). SPR experiments were conducted at 37° C. using HBS-P (150 mM NaCl, 10 mM HEPES, pH 7.6, 0.05% Tween-20) (TEKNOVA catalog #H8032) with additional 150 mM NaCl and 1 mM or 2 mM CaCl₂) (see Table 2) or 2 mM EDTA (see Table 3) as running buffer. Antibodies were diluted to 1.5 μg/mL in the running buffer, and were captured across active biosensor flow cells at 10 μL/min for 15 to 30 seconds. […] The association and dissociation of the antibodies with PAD4 were measured. One 30 second injection followed by one 15 second injection of 10 mM glycine pH 1.5 was used to regenerate the Protein A capture surface between assay cycles. For anti-human capture surface, two 30 second injections of 3 M MgCl₂ was used for regeneration. SPR measurements for mAb20 and mAb 13 SPR were done in the presence of 2 mM CaCl₂). The remaining antibodies were tested in the presence of 1 mM CaCl₂).
# (§2) Rate constants kₒₙ and koff were derived from reference flow cell- and 0 nM blank-subtracted sensorgrams, and were fit to a 1:1 binding model in Biacore® Insight Evaluation software version 3.0.12.15655. Deviations from 1:1 binding model were observed, which may be caused by increased dimerization of PAD4 at higher concentrations. The equilibrium dissociation constant, KD, was calculated as the ratio of rate constants koff/kₒₙ for each PAD4 antibody. For those antibodies that were tested in multiple SPR experiments, the average value and standard deviation from two or three separate experiments are listed in Tables 2 and 3.
Kd [nM],koff [s⁻¹],kon [M⁻¹ s⁻¹],Binder
0.5,0.00021,380000,B1
0.9,0.00031,340000,B2
0.6,0.00021,380000,B3
0.6,0.00022,360000,B4
3,0.00073,240000,B5
0.6,0.00022,390000,B6
0.4,0.00018,480000,B7
1.2,0.00037,300000,B8
1,0.00032,310000,B9
0.4,0.00018,480000,B10
0.4,0.00018,440000,B11
1.7,0.0004,240000,B12
0.4,0.00018,450000,B13
0.3,0.0004,1.3e+06,B14

# Biological target: T1, recombinant human PAD4
# Experiment: SPR 37 C, captured antibody, PAD4 analyte, 1 mM CaCl2
# Description: Their binding to human PAD4 was measured by Surface Plasmon Resonance (SPR). SPR measurements were performed with a Biacore® 8K, 8K+, or T200 instrument (Cytiva). The association rate constants, kₒₙ, dissociation rate constants, koff, and equilibrium dissociation constants, KD, of the antibodies with PAD4 were determined from these SPR measurements.
# as §1
# as §2, with “antibody.” for “antibody. For those antibodies that were tested in multiple SPR experiments, the average value and standard deviation from two or three separate experiments are listed in Tables 2 and 3.”
Kd [nM],koff [s⁻¹],kon [M⁻¹ s⁻¹],Binder
0.8,0.00026,350000,B1
0.5,0.00023,500000,B2
0.6,0.00019,320000,B3
0.8,0.00025,320000,B4
1.7,0.00046,270000,B5
0.9,0.00025,300000,B6
0.3,0.00017,640000,B7
0.6,0.00025,390000,B8
1.1,0.00029,290000,B9
0.3,0.00015,490000,B10
0.5,0.00019,390000,B11
1.9,0.00045,250000,B12
0.6,0.0002,340000,B13
0.2,0.00015,880000,B14
0.1,0.0002,3.1e+06,B15
0.1,0.0003,2.7e+06,B18
0.1,0.00017,2.2e+06,B16
0.1,0.00015,1.9e+06,B17

# Biological target: extracellular matrix (ECM) proteins
# Experiment: ECM plate ELISA (Matrigel), 1 uM antibody, A450 over wells without sample
row,ECM Score (1 µM),Binder
1,5,B1
2,20,B2
3,3,B3
4,4,B4
5,1,B5
6,4,B6
7,18,B7
8,16,B8
9,6,B9
10,19,B10
11,19,B11
12,3,B12
13,20,B13
14,1,B14
15,1,B15
16,1,B16
17,1,B17
